pKd: −log10 of the molar value.
Tests used:
[1] = biological target: VZV glycoprotein C gC_(S147-V531) (varicella zoster virus, Dumas strain)
[2] = biological target: VZV glycoprotein C construct gC Y419-S523 (varicella zoster virus (Dumas strain)); experiment: SPR
[3] = biological target: VZV glycoprotein C gC_(S147-V531) (varicella zoster virus, Dumas strain); experiment: SPR + other: grating-coupled interferometry (GCI)
[4] = biological target: VZV glycoprotein C gC_(Y322-S523) (varicella zoster virus, Dumas strain); experiment: SPR + other: grating-coupled interferometry (GCI)
[5] = biological target: VZV glycoprotein C gC_(Y419-S523) (varicella zoster virus, Dumas strain); experiment: SPR + other: grating-coupled interferometry (GCI)
Chain of VZV glycoprotein C gC_(Y419-S523) (varicella zoster virus, Dumas strain) (P09256 450-554 limits assumed): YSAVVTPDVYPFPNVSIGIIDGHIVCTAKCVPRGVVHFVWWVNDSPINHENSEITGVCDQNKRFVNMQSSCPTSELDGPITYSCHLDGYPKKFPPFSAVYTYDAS

Chain of VZV glycoprotein C construct gC Y419-S523 (varicella zoster virus (Dumas strain)) (P09256 450-554 limits assumed): as above
Chain of VZV glycoprotein C gC_(S147-V531) (varicella zoster virus, Dumas strain) (P09256 178-562 limits assumed): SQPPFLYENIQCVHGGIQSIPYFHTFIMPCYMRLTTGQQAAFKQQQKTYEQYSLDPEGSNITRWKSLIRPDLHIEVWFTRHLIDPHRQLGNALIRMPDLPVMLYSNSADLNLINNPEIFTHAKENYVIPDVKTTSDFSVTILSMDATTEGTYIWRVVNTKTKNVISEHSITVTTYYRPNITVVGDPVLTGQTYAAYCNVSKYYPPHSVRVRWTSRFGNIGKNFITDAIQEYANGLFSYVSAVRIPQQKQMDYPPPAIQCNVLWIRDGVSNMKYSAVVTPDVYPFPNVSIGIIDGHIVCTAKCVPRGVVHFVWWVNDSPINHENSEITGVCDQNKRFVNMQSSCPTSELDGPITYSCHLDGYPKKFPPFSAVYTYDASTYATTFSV
Chain of VZV glycoprotein C gC_(Y322-S523) (varicella zoster virus, Dumas strain) (P09256 353-554 limits assumed): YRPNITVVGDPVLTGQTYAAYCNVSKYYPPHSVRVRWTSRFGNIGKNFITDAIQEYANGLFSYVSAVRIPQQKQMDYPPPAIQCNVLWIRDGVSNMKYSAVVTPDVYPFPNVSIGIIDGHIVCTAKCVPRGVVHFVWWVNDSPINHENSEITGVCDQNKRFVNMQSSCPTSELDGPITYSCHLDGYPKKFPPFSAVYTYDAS

## interferon-gamma (IFN-γ) (from UniProt P01579 24-161) (ligand)
[1]
  adhesion of Jurkat cells to HaCaT cells stimulated with 5 ng/mL IFN-γ and 300 nM gC construct, fold against IFN-γ alone: 2.7 fold
[2]
  pKd: 7.74
  koff: 0.0244 s⁻¹
  kon: 1.35e+06 M⁻¹ s⁻¹
[3]
  off-rate of the transient interaction (Kd1), heterogenous ligand fit: 0.04 s⁻¹
[4]
  off-rate of the transient interaction (Kd1), heterogenous ligand fit: 0.04 s⁻¹
[5]
  koff: 0.02 s⁻¹
